Laboratory results: the nanobody polyreactivity screen of Harvey et al. (2022)

Assay: yeast display, Sf9 membrane polyspecificity reagent, FACS + sequencing; frameworks hold sequencing errors
How it was run: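 Using colony PCR, genes from sorted yeast display clones were amplified, then sequenced on MiSeq at 2 × 250 and filtered by CDR length. The clones had been stained with 10% biotinylated, detergent-solubilized Sf9 membrane reagent for 1 hour at 4 °C and sorted by FACS into low and high (top ~1%) gates on anti-HA and streptavidin fluorescence. Polyreactivity labels come from the gate of origin.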

Sequence | polyreactivity (PSR sort gate)
QVQLVESGGGLVQAGGSLRLSCAASGFTFYQYGMGWYRQAPGKERELVATITSGGRTNYADSVKGRFTISRDNAKNTVYLQMNSLKPEDTAVYYCNKLPYYPRFGRIGRYYYWGQGTQVTVSS | high polyreactivity
QVQLVESGGGLVQAGGSLRLSCAASGFTFYRNAMGWYRQAPGKERELVAAITLSGTSTYYADSVMGRFTISRDNAKNTVYLQMISLIPEDTAVYYWNTVGYRGPSNSRFYYWGQGTQVTLSS | high polyreactivity
QVQLVESGGGLVQAGGSLRLSCAASGFTFYRNAMGWYRQAPGKEREMVAAITWSGTSTYYADSVKGRFTISRDNAKNTVYFQMNSLKPEDTAVYFCNTVGYRGRSNSRFYYWGQGTQVTVSS | high polyreactivity
QVQLVESGGGLVQAGGSLRLSCAASGFTFYRNAMGWYRQAPWKERELVATITRSGGSKYYADSVKGRFTISRDNAKNTVYLQMNSLKPEDTEVYYCNDAISGVLVHGNYWGQGTQVTVSS | low polyreactivity
QVQLVESGGGLVQAGGSLRLSCAASGFTFYRNAMRWYRQAPGKERELVAAISRGGRTYYADSVKGRFTISRDNAKNTVYLQMNSLKPEDTAVYYCARKYTRKIPASDYWGQGTQVTVSS | high polyreactivity
QVQLVESGGGLVQAGGSLRLSCAASGFTFYRNDMGWYRQAPGKEREFVAAITTSGGSTYYADSVKGRFTISRDNAKYTVYLQMNSLKPEDTAVYYCNAYGDGYWKTFGYWGQGTQVTVSS | high polyreactivity
QVQLVESGGGLVQAGGSLRLSCAASGFTFYRYAMGSYRQAPGKERELFAAIRKSGGSTYYADSVKGRFTISRDNAKNTVYLLMNSMKAEDTAVYYCAKRYATDGFGYWGQGTQVTVSS | high polyreactivity
QVQLVESGGGLVQAGGSLRLSCAASGFTFYRYAMGWYRPAPGKERELVAAISSTGDRTYYADSVKGRFTISRDNAKNTVYLQMNSLKPEDTAVYYCAAPYQNQVEFNYWGQGTQVTVSS | high polyreactivity
QVQLVESGGGLVQAGGSLRLSCAASGFTFYRYAMGWYRPAPGKERELVAAITRSGSRTYYADSVKGRFTISRDNAKNTVYLQMNSLKPEDTAVYYCNTDGGDHPTARYGYWGQGTQVTVSS | high polyreactivity
QVQLVESGGGLVQAGGSLRLSCAASGFTFYRYAMGWYRQAPGKERELVAAISRTGGSTYYADSVKGRFTISRDNAKNTVYLQMNSLKPEDTAVYYCAAERKARTSWYGAASRYYYWGQGTQVTVSS | high polyreactivity
QVQLVESGGGLVQAGGSLRLSCAASGFTFYRYTMGWYRQAPGKERELVAAITNTDSTNYADSVKGRFTISRDNAKNTVYLQMNSLKPEDTAVYYCNAAYVWYRIFVRRDYWGQGTQVTVSS | high polyreactivity
QVQLVESGGGLVQAGGSLRLSCAASGFTFYSNAMGWYRQAPGKERELGAAITWSTGNTYYADSVKGRFTISRDNAKNTVYLQMNSLKPEDTAVYYCAARSHTGYYPPSYYWGQATQVTVSS | high polyreactivity
QVQLVESGGGLVQAGGSLRLSCAASGFTFYTNAMGLSRQAPGKERELVAAISQRGASTYYADSVKGRFTISRDNAKNTFYLEMTSLKPEDTAVYYCAASSRTHGSYYYWGQGTQVTVSS | high polyreactivity
QVQLVESGGGLVQAGGSLRLSCAASGFTFYTNAMGWYRQAPGKEREFVAAISWSGTGTYYADSVKGRFTISRDNAKNTVYLQMNSLKPEDTAVYYCAARDRWRGGRKFDYWGQGTQVTVSS | high polyreactivity
QVQLVESGGGLVQAGGSLRLSCAASGFTFYTYAMGWYRQAPGKERELVAAINQRGGRTYYADSVKGRFTISRDNAKNTVYLQMNSLKPEDTAVYYCAKSPPPKTRYDYWGQGTQVTVSS | high polyreactivity
QVQLVESGGGLVQAGGSLRLSCAASGFTFYTYVRGWYRQAPGKERELVAAITSGVSTNYADSVKGRFTISRDNAKNTVYLQMNSLKPEDTAVYYCNKDVRPAYRWYDYWGQDTQVTVSS | low polyreactivity

Sequence | polyreactivity (PSR sort gate)
QVQLVESGGGLVQAGGSLRLSCAASGFTFYWYAMGWYRKAPGKERELVAAISSSGGRTYYADSVKGRFTISRDNAKNTVYLQMNSLKPEDTAVYYCAAAHTREYYWGQGTQVTVSS | high polyreactivity
QVQLVESGGGLVQAGGSLRLSCAASGFTFYWYAMGWYRQAPGKERELVAAITIGGSTYYADSVKGRFTISRDNAKNTVYLQMNSLKPEDTAVYYCNVYGYGTEYDYWGQGTQVTVSS | high polyreactivity
QVQLVESGGGLVQAGGSLRLSCAASGFTFYYNAMGWYRQAPGKERELVAVISSSGSRTYYADSVKGRFTISRYNAKNTVYLQMNSLKPEDTAVYYCAAARIGTRDYWGQGTQVSVSS | high polyreactivity
QVQLVESGGGLVQAGGSLRLSCAASGFTFYYNDMGWYRQAPGKERELVATITNS | low polyreactivity
QVQLVESGGGLVQAGGSLRLSCAASGFTFYYYAMGWYRQAPGKERELVAAINRSGGSTYYADSVKGRFTISRDNAKNTVYLQMNSLKPEDTAVYYCNKRLLVSRSSAQPYGYWGQGTQVTVSS | high polyreactivity
QVQLVESGGGLVQAGGSLRLSCAASGFTFYYYAMGWYRQAPGKERELVATISRSGGSTYYADSVKGRFTISRDNAKNTVYLQMNSLKPEDTAVYYCAARSYKSPRDYDYWGQGTQVTVSS | high polyreactivity
QVQLVESGGGLVQAGGSLRLSCAASGFTFYYYAMGWYRQAPGTERELVASITSTDSTTYADSVKGRFTISRDNAKNTVYLQMNSLKPEDTAVYYFNRLYYHWYGGLDYWGHGTQVTVSS | high polyreactivity
QVQLVESGGGLVQAGGSLRLSCAASGFTFYYYPMGWYRQAPGKERELVAAITWRGGSTNYADSVKGRFTISRDNAKNTVYLLMISLKPEDTAVYYCAAVTYWFWPGMDYWGQGTQVTVSS | low polyreactivity
QVQLVESGGGLVQAGGSLRLSCAASGFTFYYYTMGWYRQAPGKERELVAGISGTGGSTYYADSVKGRFTISRDNAKNTVYLQMNSLKPEDTAVYYCAAGPWYWGQGTQVTVSS | low polyreactivity
QVQLVESGGGLVQAGGSLRLSCAASGFTFYYYTMGWYRQAPGKERELVAVITGGGGSTYYADSVKGRFTISRDNAKNTVYLQMNSLKPEDTAVYYCAAKFYGWYRQRGYDYWGQGTQVTVSS | high polyreactivity
QVQLVESGGGLVQAGGSLRLSCAASGFTFYYYVMGWSRQAPGKERELVAAITRSGGSTYYADSVKGRFTISRDNAKNTVYLQMNSLKPEDTAVYYCNAYVPPKAASAAYDYWGQGTQVTVSS | high polyreactivity
QVQLVESGGGLVQAGGSLRLSCAASGFTIGSNAMGWYRPAPGKEWELVAAISYTCSTYYAESVKGRFTISRDNAKNTVYLQKNSLKPEDTAVYYGNAESDTPSYDDWGQGTQVTVSS | low polyreactivity
QVQLVESGGGLVQAGGSLRLSCAASGFTIHNYAMGWYRQAPGKERELVARITRSGGTTYYADSVKGRFTISRDNAKNTVYLQMNSLKPEDTAVYYCAARRYGYTSITWYDYWGQGTQVTVSS | high polyreactivity
QVQLVESGGGLVQAGGSLRLSCAASGFTILRYAMGWYRQAPGKERDLVAAISTSGGSTSYADSVKGRFTISRDNAKNTVYVQMYSLKPEDSAVYYCKAVLYKAYWQLYDYWGQGSQVTVSS | high polyreactivity
QVQLVESGGGLVQAGGSLRLSCAASGFTIRNYAMGLYRQAPGKERELFAAIRGRGGSTYYADSVKGRFTISRDNAKNTDYLQMNSLKPEDTAVYYCARVGYASYEHDYWGQGTQVNVSS | high polyreactivity
QVQLVESGGGLVQAGGSLRLSCAASGFTISDNAMGWYRQAPGKERELVAAITSGTSTYYADSVKGRFTISRDNAKNTVYLQMNSLKPEDTAVYYCAARTYYSGYLWARGYWGQGTQVTVSS | high polyreactivity
